16 variants from paper PMC9396398, “Crystal structure of Ankyrin-G in complex with a fragment of Neurofascin reveals binding mechanisms required for integrity of the axon initial segment” (The Journal of Biological Chemistry, 2022) can be followed below.

B1: Nfasc ankyrin-binding domain (ABD, residues 1187-1214) [not stated] / AnkG ANK repeats (residues 38-855, R1-24) [not stated] (parent complex)
chain 1: SDDSLVDYGEGGEGQFNEDGSFIGQYTV
chain 2: KSDANASYLRAARAGHLEKALDYIKNGVDVNICNQNGLNALHLASKEGHVEVVSELLQREANVDAATKKGNTALHIASLAGQAEVVKVLVTNGANVNAQSQNGFTPLYMAAQENHLEVVRFLLDNGASQSLATEDGFTPLAVALQQGHDQVVSLLLENDTKGKVRLPALHIAARKDDTKAAALLLQNDTNADIESKMVVNRATESGFTPLHIAAHYGNINVATLLLNRAAAVDFTARNDITPLHVASKRGNANMVKLLLDRGAKIDAKTRDGLTPLHCGARSGHEQVVEMLLDRAAPILSKTKNGLSPLHMATQGDHLNCVQLLLQHNVPVDDVTNDYLTALHVAAHCGHYKVAKVLLDKKANPNAKALNGFTPLHIACKKNRIRVMELLLKHGASIQAVTESGLTPIHVAAFMGHVNIVSQLMHHGASPNTTNVRGETALHMAARSGQAEVVRYLVQDGAQVEAKAKDDQTPLHISARLGKADIVQQLLQQGASPNAATTSGYTPLHLSAREGHEDVAAFLLDHGASLSITTKKGFTPLHVAAKYGKLEVASLLLQKSASPDAAGKSGLTPLHVAAHYDNQKVALLLLDQGASPHAAAKNGYTPLHIAAKKNQMDIATSLLEYGADANAVTRQGIASVHLAAQEGHVDMVSLLLSRNANVNLSNKSGLTPLHLAAQEDRVNVAEVLVNQGAHVDAQTKMGYTPLHVGCHYGNIKIVNFLLQHSAKVNAKTKNGYTPLHQAAQQGHTHIINVLLQNNASPNELTVNGNTALAIARRLGYISVVDTLKVVTEEIMTTTTITEKHKMNVPETMNEVLDMS
B2: Nfasc 1198 to 1214 WT [not stated] / AnkG ANK repeats (residues 38-855, R1-24) [not stated] (parent complex)
chain 1: GEGQFNEDGSFIGQYTV
chain 2: B1 chain 2

Variants of B1 are the subject of one test. In words: ITC; parent: 220 nM. For orientation: In ITC the heat of successive injections is recorded.
For the variant chain 2 H347A, the Kd (in general, a measure of binding affinity in units of concentration) was determined as 1700 nM.
As to chain 2 M311Q, the Kd was found to be 1800 nM.
On the same count and under the same terms, the figure for chain 2 V245Q is 1300 nM; for chain 2 T302A, chain 2 N304A it is 2500 nM; for chain 2 I240Q, chain 2 L273Q it is 3000 nM.
As to chain 2 R281A, chain 2 Q314A, the Kd was found to be 670 nM.
For the variant chain 2 L306Q, chain 2 L339Q, the Kd was found to be 2000 nM.

The variants in the next test derive from B2. In words: ITC; parent: 340 nM.
As to chain 1 F11Q, the Kd was found to be 1400 nM.
Regarding chain 1 I12Q, the Kd was 1000 nM.
For the variant chain 1 E7A, the Kd was 9200 nM.
In the case of chain 1 D8A, the Kd turned out to be 1300 nM.
Regarding chain 1 D8K, the Kd is 7700 nM.
On the same count and under the same terms, the figure for chain 1 N6A is 260 nM; for chain 1 T16A it is 460 nM.
On to chain 1 Y15E, for which the Kd worked out at 3200 nM.
Regarding chain 1 F5Q, the dissociation constant Kd stood at 7100 nM.
